# Reference: the supplement of paper PMC9112550, “Optimization of the antimicrobial peptide Bac7 by deep mutational scanning” (BMC Biology, 2022)
# Test system: Escherichia coli TOP10
# Experiment: shrunken log2 fold change of peptide-encoding DNA abundance (4.5 h post-induction vs induction); higher = less antimicrobial activity (less host growth inhibition)
# Conditions: time post-induction: 4.5 h; library: site-saturation at positions 5, 18, 19, 20
# 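Note: peptides expressed intracellularly from a pBAD plasmid library in pooled LB shake-flask culture, induced with 0.3% L-arabinose, DNA abundance read by NGS, three biological replicates, DESeq2 with apeglm shrinkage.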
row,Sequence,shrunken log2 fold change
1,RRIRWRPPRLPRPRPRPCVRPRP,0.0233
2,RRIRWRPPRLPRPRPRPCVTPRP,0.024
3,RRIRWRPPRLPRPRPRPCWMPRP,0.0693
4,RRIRWRPPRLPRPRPRPCWQPRP,-0.0167
5,RRIRWRPPRLPRPRPRPCYGPRP,0.22
6,RRIRWRPPRLPRPRPRPCYYPRP,-0.0954
7,RRIRWRPPRLPRPRPRPDAYPRP,0.309
8,RRIRWRPPRLPRPRPRPDCIPRP,0.0529
9,RRIRWRPPRLPRPRPRPDCNPRP,-0.0173
10,RRIRWRPPRLPRPRPRPDCQPRP,-0.00822
11,RRIRWRPPRLPRPRPRPDDDPRP,3.98
12,RRIRWRPPRLPRPRPRPDFKPRP,-0.0843
13,RRIRWRPPRLPRPRPRPDFWPRP,0.582
14,RRIRWRPPRLPRPRPRPDGDPRP,0.36
15,RRIRWRPPRLPRPRPRPDHRPRP,-0.0843
16,RRIRWRPPRLPRPRPRPDIWPRP,0.642
17,RRIRWRPPRLPRPRPRPDKNPRP,0.142
18,RRIRWRPPRLPRPRPRPDKWPRP,-0.161
19,RRIRWRPPRLPRPRPRPDLYPRP,0.0586
20,RRIRWRPPRLPRPRPRPDNSPRP,-0.0707
21,RRIRWRPPRLPRPRPRPDPHPRP,0.135
22,RRIRWRPPRLPRPRPRPDRGPRP,-0.0836

row,Sequence,shrunken log2 fold change
1,RRIRWRPPRLPRPRPRPDSNPRP,-0.189
2,RRIRWRPPRLPRPRPRPDVVPRP,0.0719
3,RRIRWRPPRLPRPRPRPEEDPRP,0.00839
4,RRIRWRPPRLPRPRPRPEEVPRP,-0.0142
5,RRIRWRPPRLPRPRPRPEFHPRP,0.227
6,RRIRWRPPRLPRPRPRPEFKPRP,0.0019
7,RRIRWRPPRLPRPRPRPEHRPRP,0.231
8,RRIRWRPPRLPRPRPRPEIDPRP,0.0771
9,RRIRWRPPRLPRPRPRPEIHPRP,-0.0167
10,RRIRWRPPRLPRPRPRPEKHPRP,0.39
11,RRIRWRPPRLPRPRPRPEMAPRP,1.14
12,RRIRWRPPRLPRPRPRPENDPRP,-0.0396
13,RRIRWRPPRLPRPRPRPEPAPRP,1.18
14,RRIRWRPPRLPRPRPRPEPFPRP,-0.0317
15,RRIRWRPPRLPRPRPRPEPNPRP,1.23
16,RRIRWRPPRLPRPRPRPEQMPRP,0.222
17,RRIRWRPPRLPRPRPRPEQNPRP,0.117
18,RRIRWRPPRLPRPRPRPESCPRP,0.261
19,RRIRWRPPRLPRPRPRPESNPRP,0.535
20,RRIRWRPPRLPRPRPRPESPPRP,0.637
21,RRIRWRPPRLPRPRPRPETLPRP,0.0224
22,RRIRWRPPRLPRPRPRPETMPRP,0.569

row,Sequence,shrunken log2 fold change
1,RRIRWRPPRLPRPRPRPEVGPRP,1.38
2,RRIRWRPPRLPRPRPRPEVRPRP,0.495
3,RRIRWRPPRLPRPRPRPEVSPRP,0.269
4,RRIRWRPPRLPRPRPRPEYYPRP,-0.13
5,RRIRWRPPRLPRPRPRPFARPRP,0.188
6,RRIRWRPPRLPRPRPRPFCCPRP,-0.163
7,RRIRWRPPRLPRPRPRPFCQPRP,-0.0441
8,RRIRWRPPRLPRPRPRPFDGPRP,-0.0363
9,RRIRWRPPRLPRPRPRPFEQPRP,0.0143
10,RRIRWRPPRLPRPRPRPFFNPRP,-0.267
11,RRIRWRPPRLPRPRPRPFFQPRP,0.329
12,RRIRWRPPRLPRPRPRPFGYPRP,-0.0944
13,RRIRWRPPRLPRPRPRPFKCPRP,-0.127
14,RRIRWRPPRLPRPRPRPFKYPRP,-0.00867
15,RRIRWRPPRLPRPRPRPFLWPRP,0.0802
16,RRIRWRPPRLPRPRPRPFMGPRP,0.0373
17,RRIRWRPPRLPRPRPRPFPWPRP,-0.0524
18,RRIRWRPPRLPRPRPRPFQKPRP,0.0262
19,RRIRWRPPRLPRPRPRPFQTPRP,-0.00783
20,RRIRWRPPRLPRPRPRPFRRPRP,-0.134
21,RRIRWRPPRLPRPRPRPFRTPRP,-0.16
22,RRIRWRPPRLPRPRPRPFSCPRP,-0.00231

row,Sequence,shrunken log2 fold change
1,RRIRWRPPRLPRPRPRPFTEPRP,-0.478
2,RRIRWRPPRLPRPRPRPFWIPRP,0.0876
3,RRIRWRPPRLPRPRPRPFWLPRP,0.0108
4,RRIRWRPPRLPRPRPRPFWNPRP,-0.175
5,RRIRWRPPRLPRPRPRPFWQPRP,-0.00499
6,RRIRWRPPRLPRPRPRPGALPRP,0.406
7,RRIRWRPPRLPRPRPRPGAVPRP,0.745
8,RRIRWRPPRLPRPRPRPGCYPRP,-0.0343
9,RRIRWRPPRLPRPRPRPGDGPRP,0.881
10,RRIRWRPPRLPRPRPRPGDIPRP,-0.133
11,RRIRWRPPRLPRPRPRPGDMPRP,0.344
12,RRIRWRPPRLPRPRPRPGDSPRP,-0.163
13,RRIRWRPPRLPRPRPRPGEFPRP,0.17
14,RRIRWRPPRLPRPRPRPGEMPRP,0.0495
15,RRIRWRPPRLPRPRPRPGFIPRP,0.0297
16,RRIRWRPPRLPRPRPRPGGLPRP,0.403
17,RRIRWRPPRLPRPRPRPGHAPRP,0.234
18,RRIRWRPPRLPRPRPRPGIWPRP,0.217
19,RRIRWRPPRLPRPRPRPGKQPRP,0.151
20,RRIRWRPPRLPRPRPRPGMMPRP,0.113
21,RRIRWRPPRLPRPRPRPGPHPRP,-0.0302
22,RRIRWRPPRLPRPRPRPGQMPRP,0.0528

row,Sequence,shrunken log2 fold change
1,RRIRWRPPRLPRPRPRPGRIPRP,0.298
2,RRIRWRPPRLPRPRPRPGSSPRP,-0.0655
3,RRIRWRPPRLPRPRPRPGSTPRP,0.161
4,RRIRWRPPRLPRPRPRPGTSPRP,0.304
5,RRIRWRPPRLPRPRPRPGTWPRP,0.0354
6,RRIRWRPPRLPRPRPRPGVWPRP,0.519
7,RRIRWRPPRLPRPRPRPGWIPRP,0.207
8,RRIRWRPPRLPRPRPRPGWRPRP,0.617
9,RRIRWRPPRLPRPRPRPHACPRP,0.171
10,RRIRWRPPRLPRPRPRPHAFPRP,0.154
11,RRIRWRPPRLPRPRPRPHAHPRP,0.0336
12,RRIRWRPPRLPRPRPRPHCWPRP,0.202
13,RRIRWRPPRLPRPRPRPHETPRP,0.126
14,RRIRWRPPRLPRPRPRPHFAPRP,0.046
15,RRIRWRPPRLPRPRPRPHFFPRP,-0.0221
16,RRIRWRPPRLPRPRPRPHGCPRP,0.0126
17,RRIRWRPPRLPRPRPRPHGYPRP,-0.018
18,RRIRWRPPRLPRPRPRPHHEPRP,-0.262
19,RRIRWRPPRLPRPRPRPHHFPRP,-0.0138
20,RRIRWRPPRLPRPRPRPHIAPRP,0.0545
21,RRIRWRPPRLPRPRPRPHKCPRP,0.188
